The text below walks through data of PMC10980755, “Cooperative nucleic acid binding by Poly ADP-ribose polymerase 1”.

The target in data set [1] is T1, ∆CAT-PARP1 (UniProt P09874 1-662, del663-1014). The experiment in a line: EMSA; Kmono; n=1.0±0.1; EMSA: 25 mM Tris pH 8.0, 150 mM NaCl, 50 mM arginine, 1 mM EDTA, 0.1 mM TCEP, 1 mg/mL BSA, 20 °C, 30 min; 0.06 µM nucleic acid. The conditions noted are these: protein: recombinant; tags: His; label: 5'-32P.
Data set [2] has as its target T2, WT-PARP1 (full-length) (UniProt P09874 1-1014). Description: EMSA; monomer-equivalent Kmono; n=1.8±0.1; ω=24.7±8.6; EMSA: 25 mM Tris pH 8.0, 150 mM NaCl, 50 mM arginine, 1 mM EDTA, 0.1 mM TCEP, 1 mg/mL BSA, 20 °C, 30 min; 0.06 µM nucleic acid. The conditions noted are these: protein: recombinant; tags: His; label: 5'-32P. On the technique in general: A gel shift assay detects complexes by their altered migration in electrophoresis.

The target of data set [3] is T3, ∆Zn1∆Zn2-PARP1 (UniProt P09874 216-1014, del1-215). Description: EMSA; monomer-equivalent Kmono; n=1.7±0.1; ω=56.7±14.4; EMSA: 25 mM Tris pH 8.0, 150 mM NaCl, 50 mM arginine, 1 mM EDTA, 0.1 mM TCEP, 1 mg/mL BSA, 20 °C, 30 min; 0.06 µM nucleic acid. The settings on record: protein: recombinant; tags: His; label: 5'-Cy3.
Data set [4] addresses T2, WT-PARP1 (full-length). The experiment in a line: EMSA; monomer-equivalent Kmono; n=2.2±0.1; ω=51.4±10.1; EMSA: 25 mM Tris pH 8.0, 150 mM NaCl, 50 mM arginine, 1 mM EDTA, 0.1 mM TCEP, 1 mg/mL BSA, 20 °C, 30 min; 0.06 µM nucleic acid. The settings on record: protein: recombinant; tags: His; label: 5'-Cy3.
Data set [5] deals with T1, ∆CAT-PARP1. The experiment in a line: EMSA; monomer-equivalent Kmono; n=1.9±0.1; ω=49.0±12.9; EMSA: 25 mM Tris pH 8.0, 150 mM NaCl, 50 mM arginine, 1 mM EDTA, 0.1 mM TCEP, 1 mg/mL BSA, 20 °C, 30 min; 0.06 µM nucleic acid. The conditions noted are these: protein: recombinant; tags: His; label: 5'-Cy3.
Data set [6] addresses T2, WT-PARP1 (full-length). Description: EMSA; monomer-equivalent Kmono; n=4.1±0.2; ω=82.6±20.5; EMSA: 25 mM Tris pH 8.0, 150 mM NaCl, 50 mM arginine, 1 mM EDTA, 0.1 mM TCEP, 1 mg/mL BSA, 20 °C, 30 min; 0.06 µM nucleic acid. The settings on record: protein: recombinant; tags: His; label: 5'-32P on one strand (EMSA); unlabeled in AUC; blunt.
The target in data set [7] is T1, ∆CAT-PARP1. The experiment in a line: EMSA; monomer-equivalent Kmono; n=3.9±0.2; ω=139.9±59.5; EMSA: 25 mM Tris pH 8.0, 150 mM NaCl, 50 mM arginine, 1 mM EDTA, 0.1 mM TCEP, 1 mg/mL BSA, 20 °C, 30 min; 0.06 µM nucleic acid. The conditions noted are these: protein: recombinant; tags: His; label: 5'-32P on one strand (EMSA); unlabeled in AUC; blunt.
Data set [8] deals with T3, ∆Zn1∆Zn2-PARP1. Description: sedimentation velocity AUC; 10 mM Tris pH 8.0, 100 mM NaCl, 4 °C; 1.8 µM DNA, 7.2 µM protein; reaction boundary, rapid equilibrium; EMSA: 25 mM Tris pH 8.0, 150 mM NaCl, 50 mM arginine, 1 mM EDTA, 0.1 mM TCEP, 1 mg/mL BSA, 20 °C, 30 min; 0.06 µM nucleic acid. The conditions noted are these: protein: recombinant; tags: His; label: 5'-32P on one strand (EMSA); unlabeled in AUC; blunt.

Data set [9] deals with T1, ∆CAT-PARP1. Description: EMSA; monomer-equivalent Kmono; n=1.8±0.1; ω=86.1±20.3; EMSA: 25 mM Tris pH 8.0, 150 mM NaCl, 50 mM arginine, 1 mM EDTA, 0.1 mM TCEP, 1 mg/mL BSA, 20 °C, 30 min; 0.06 µM nucleic acid. The settings on record: protein: recombinant; tags: His; label: 5'-32P.
In data set [10] the target is T3, ∆Zn1∆Zn2-PARP1. The experiment in a line: EMSA; monomer-equivalent Kmono; n=2.9±0.2; ω=104.3±31.1; EMSA: 25 mM Tris pH 8.0, 150 mM NaCl, 50 mM arginine, 1 mM EDTA, 0.1 mM TCEP, 1 mg/mL BSA, 20 °C, 30 min; 0.06 µM nucleic acid. The conditions noted are these: protein: recombinant; tags: His; label: 5'-32P.
The target of data set [11] is T2, WT-PARP1 (full-length). Description: EMSA; monomer-equivalent Kmono; n=1.9±0.2; ω=67.3±10.8; EMSA: 25 mM Tris pH 8.0, 150 mM NaCl, 50 mM arginine, 1 mM EDTA, 0.1 mM TCEP, 1 mg/mL BSA, 20 °C, 30 min; 0.06 µM nucleic acid. The settings on record: protein: recombinant; tags: His; label: 5'-32P.

T1 sequence (P09874 1-662, stated change not applied): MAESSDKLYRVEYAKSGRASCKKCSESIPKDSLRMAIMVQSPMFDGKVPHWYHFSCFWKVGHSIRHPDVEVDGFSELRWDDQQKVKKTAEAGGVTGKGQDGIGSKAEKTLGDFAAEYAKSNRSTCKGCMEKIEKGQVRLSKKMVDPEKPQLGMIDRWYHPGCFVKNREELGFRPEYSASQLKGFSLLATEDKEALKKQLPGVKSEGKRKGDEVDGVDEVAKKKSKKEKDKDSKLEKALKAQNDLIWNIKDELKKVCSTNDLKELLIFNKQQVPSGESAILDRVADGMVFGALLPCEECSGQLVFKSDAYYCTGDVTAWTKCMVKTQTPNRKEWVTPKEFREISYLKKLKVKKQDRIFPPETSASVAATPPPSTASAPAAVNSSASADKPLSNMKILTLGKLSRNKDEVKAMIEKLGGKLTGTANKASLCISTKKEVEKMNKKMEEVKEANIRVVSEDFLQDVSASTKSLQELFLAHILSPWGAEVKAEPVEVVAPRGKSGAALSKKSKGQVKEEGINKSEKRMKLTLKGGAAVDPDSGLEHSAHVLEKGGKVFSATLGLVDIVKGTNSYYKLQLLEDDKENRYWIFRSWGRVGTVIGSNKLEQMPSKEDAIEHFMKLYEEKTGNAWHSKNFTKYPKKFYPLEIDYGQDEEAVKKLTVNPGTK
T2 sequence (P09874 whole entry): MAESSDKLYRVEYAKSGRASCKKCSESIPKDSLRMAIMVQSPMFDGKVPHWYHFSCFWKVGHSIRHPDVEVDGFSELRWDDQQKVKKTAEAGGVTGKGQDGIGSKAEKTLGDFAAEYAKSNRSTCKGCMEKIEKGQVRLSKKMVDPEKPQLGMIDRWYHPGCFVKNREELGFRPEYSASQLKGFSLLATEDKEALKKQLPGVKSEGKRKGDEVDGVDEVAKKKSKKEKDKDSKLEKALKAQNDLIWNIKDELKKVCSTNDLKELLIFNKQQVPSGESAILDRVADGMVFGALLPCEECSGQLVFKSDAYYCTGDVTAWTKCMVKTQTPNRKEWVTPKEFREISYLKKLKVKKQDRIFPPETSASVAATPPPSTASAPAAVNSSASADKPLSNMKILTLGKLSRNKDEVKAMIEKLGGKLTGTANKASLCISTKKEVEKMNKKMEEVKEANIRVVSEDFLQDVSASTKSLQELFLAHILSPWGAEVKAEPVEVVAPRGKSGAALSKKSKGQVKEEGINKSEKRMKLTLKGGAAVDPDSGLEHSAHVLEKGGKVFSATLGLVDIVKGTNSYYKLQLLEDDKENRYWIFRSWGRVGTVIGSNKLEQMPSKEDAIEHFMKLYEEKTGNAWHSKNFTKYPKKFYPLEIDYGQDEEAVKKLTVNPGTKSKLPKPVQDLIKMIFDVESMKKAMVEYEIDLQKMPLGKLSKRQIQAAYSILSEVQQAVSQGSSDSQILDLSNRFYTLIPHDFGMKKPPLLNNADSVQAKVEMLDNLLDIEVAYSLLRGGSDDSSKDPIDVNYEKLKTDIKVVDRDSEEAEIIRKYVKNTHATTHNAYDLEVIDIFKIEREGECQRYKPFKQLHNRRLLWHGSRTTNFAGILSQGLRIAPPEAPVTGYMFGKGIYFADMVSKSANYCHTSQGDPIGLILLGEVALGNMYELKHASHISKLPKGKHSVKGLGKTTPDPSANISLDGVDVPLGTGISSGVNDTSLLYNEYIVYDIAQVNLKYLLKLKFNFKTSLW
T3 sequence (P09874 216-1014, stated change not applied): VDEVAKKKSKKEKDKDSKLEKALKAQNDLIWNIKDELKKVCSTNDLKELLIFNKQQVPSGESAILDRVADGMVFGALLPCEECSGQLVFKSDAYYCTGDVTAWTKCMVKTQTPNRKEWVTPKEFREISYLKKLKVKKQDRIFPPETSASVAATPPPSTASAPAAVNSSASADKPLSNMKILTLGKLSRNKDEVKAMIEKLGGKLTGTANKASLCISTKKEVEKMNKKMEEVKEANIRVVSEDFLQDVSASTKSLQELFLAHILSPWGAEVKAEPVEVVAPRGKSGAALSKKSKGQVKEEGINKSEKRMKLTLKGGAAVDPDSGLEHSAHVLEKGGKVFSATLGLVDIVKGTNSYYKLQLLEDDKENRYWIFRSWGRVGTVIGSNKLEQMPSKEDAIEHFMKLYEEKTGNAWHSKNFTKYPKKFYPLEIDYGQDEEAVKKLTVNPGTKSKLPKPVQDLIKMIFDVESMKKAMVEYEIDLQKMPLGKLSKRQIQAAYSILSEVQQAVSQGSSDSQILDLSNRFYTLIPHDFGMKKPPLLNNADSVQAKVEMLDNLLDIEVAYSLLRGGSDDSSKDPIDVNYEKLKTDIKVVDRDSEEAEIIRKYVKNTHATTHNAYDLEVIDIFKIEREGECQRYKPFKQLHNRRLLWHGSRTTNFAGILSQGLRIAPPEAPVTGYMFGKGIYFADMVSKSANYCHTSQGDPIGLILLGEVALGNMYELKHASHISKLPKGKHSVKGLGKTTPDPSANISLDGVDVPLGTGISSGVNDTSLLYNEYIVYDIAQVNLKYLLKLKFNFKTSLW

B1: ss19-mer DNA (ssDNA)
DNA: CGTACGCGGGTTTAAACGA
Take B1: the values for the Ka in the data set with ∆CAT-PARP1 [1] and with WT-PARP1 (full-length) [2] were 114000 M⁻¹ and 3.3e+06 M⁻¹, respectively.

B2: Cy3-T20 DNA (ssDNA)
DNA: TTTTTTTTTTTTTTTTTTTT
As for B2, the Ka worked out at 2.5e+06 M⁻¹ with ∆Zn1∆Zn2-PARP1 [3], 1.3e+07 M⁻¹ in the data set with WT-PARP1 (full-length) [4] and 3.3e+06 M⁻¹ with ∆CAT-PARP1 [5].

B3: ds19-mer DNA (dsDNA)
DNA 1: CGTACGCGGGTTTAAACGA
DNA 2: TCGTTTAAACCCGCGTACG
In the case of B3, the Ka in the data set with WT-PARP1 (full-length) [6] was 1.2e+07 M⁻¹; with ∆CAT-PARP1 [7], 1.3e+07 M⁻¹. The binding result in the data set with ∆Zn1∆Zn2-PARP1 [8] is on record as “binds”.

B4: U20 RNA (ssRNA)
RNA: UUUUUUUUUUUUUUUUUUUU
Turning to B4, the Ka amounted to 6.6e+06 M⁻¹ in the data set with ∆CAT-PARP1 [9], 9.1e+07 M⁻¹ with ∆Zn1∆Zn2-PARP1 [10] and 2.1e+08 M⁻¹ with WT-PARP1 (full-length) [11].
